Results from the supplement of paper PMC10724198.
± gives the standard deviation of the averaged measurements.

Legend:
Saccharomyces cerevisiae [1] = test: protein stability index of tFT-peptide fusion (C-terminal peptide) (PSI (0-1 scale)); higher = more stable (slower turnover)
Protocol: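 MPS profiling in S. cerevisiae of the tFT-X12 degron library: putative degron peptides plus stable controls, 12 aa, fused to the C-terminus of a sfGFP-mCherry timer. Cells are FACS-sorted into 8 mCherry/sfGFP bins and deep-sequenced. PSI runs from 0 (unstable) to 1 (stable). Backgrounds are wild type, das1Δ and doa10Δ at 30 °C, and wild type, das1Δ, cdc34-1 and cdc53-1 at 37 °C; 2-3 technical replicates each.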

Saccharomyces cerevisiae [2] = test: as above; settings: genetic background: wild type; temperature: 30 C
[3] = genetic background: cdc34-1, temperature: 37 C
[4] = genetic background: cdc53-1, temperature: 37 C
[5] = genetic background: das1 deletion, temperature: 30 C
[6] = genetic background: das1 deletion, temperature: 37 C
[7] = genetic background: doa10 deletion, temperature: 30 C
[8] = genetic background: wild type, temperature: 30 C
[9] = genetic background: wild type, temperature: 37 C
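Also: PSI is a weighted mean of sequencing reads over stability bins, variants kept only with over 10 reads, mCherry proximal and sfGFP distal, peptide attached via GGGS linker.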

Sequence	protein stability index (Saccharomyces cerevisiae [1]; [3])	protein stability index (Saccharomyces cerevisiae [1]; [4])	protein stability index (Saccharomyces cerevisiae [1]; [5])	protein stability index (Saccharomyces cerevisiae [1]; [6])	protein stability index (Saccharomyces cerevisiae [1]; [7])	protein stability index (Saccharomyces cerevisiae [1]; [8])	protein stability index (Saccharomyces cerevisiae [1]; [9])	protein stability index (Saccharomyces cerevisiae [2])
RRQLVLVLSWVI	0.466 ± 0.017	0.508 ± 0.018	0.346 ± 0.027	0.507 ± 0.019	0.299 ± 0.013	0.322 ± 0.017	0.506 ± 0.067	0.377 ± 0.025
LVRGGLTNLFLF	0.664 ± 0.046	0.78 ± 0.019	0.644 ± 0.024	0.7829 ± 0.0056	0.181 ± 0.0012	0.194 ± 0.032	0.47 ± 0.016	0.316 ± 0.032
GFSFFFIFWFFF	0.394 ± 0.014	0.422 ± 0.011	0.35 ± 0.018	0.503 ± 0.034	0.378 ± 0.034	0.339 ± 0.027	0.436 ± 0.033	0.348 ± 0.022
SYFSVTLFFTVI	0.281 ± 0.015	0.383 ± 0.0059	0.298 ± 0.032	0.419 ± 0.0015	0.252 ± 0.02	0.272 ± 0.016	0.386 ± 0.024	0.38872 ± 0.00027
FFLLFCASFLRC	0.281 ± 0.021	0.202 ± 0.01	0.317 ± 0.011	0.433 ± 0.053	0.3661 ± 0.0025	0.294 ± 0.029	0.354 ± 0.0037	0.381 ± 0.014
YTVRRVWLVRSR	0.445 ± 0.0056	0.521 ± 0.029	0.344 ± 0.032	0.5005 ± 0.0038	0.312 ± 0.012	0.325 ± 0.038	0.4934 ± 0.0033	0.423 ± 0.0074
RFFKMREAIRIS	0.567 ± 0.088	0.5742 ± 0.00075	0.392 ± 0.022	0.59 ± 0.052	0.205 ± 0.0066	0.24 ± 0.032	0.482 ± 0.0067	0.339 ± 0.027
LCFLVLLSLLLL	0.558 ± 0.047	0.581 ± 0.018	0.464 ± 0.029	0.5486 ± 0.0041	0.466 ± 0.022	0.456 ± 0.024	0.5057 ± 0.0012	0.528 ± 0.061
IFRVTGFPIYIF	0.327 ± 0.045	0.36 ± 0.024	0.339 ± 0.021	0.4535 ± 0.0037	0.222 ± 0.014	0.233 ± 0.025	0.3522 ± 0.0011	0.297 ± 0.012
VLWSCCGGVRVR	0.587 ± 0.014	0.629 ± 0.013	0.465 ± 0.023	0.65 ± 0.022	0.452 ± 0.03	0.483 ± 0.0067	0.612 ± 0.018	0.516 ± 0.036
SVIAYTKPLWFR	0.4205 ± 0.0039	0.3736 ± 0.0027	0.351 ± 0.032	0.498 ± 0.009	0.658 ± 0.02	0.361 ± 0.016	0.486 ± 0.013	0.475 ± 0.0065
LLSILSSLPLSR	0.579 ± 0.04	0.6106 ± 0.0022	0.585 ± 0.043	0.7073 ± 0.0042	0.654 ± 0.033	0.589 ± 0.024	0.656 ± 0.029	0.576 ± 0.12
AIDLCIAVVGMV	0.479 ± 0.042	0.491 ± 0.029	0.338 ± 0.035	0.5106 ± 0.0023	0.311 ± 0.015	0.342 ± 0.026	0.4829 ± 0.001	0.4439 ± 0.0022
LLSGLVFVFVLG	0.293 ± 0.01	0.405 ± 0.026	0.238 ± 0.04	0.445 ± 0.0072	0.204 ± 0.0027	0.236 ± 0.028	0.425 ± 0.014	0.318 ± 0.02
CVIVCVLVWGRA	0.156 ± 0.025	0.269 ± 0.062	0.17 ± 0.046	0.329 ± 0.0095	0.152 ± 0.0045	0.172 ± 0.026	0.326 ± 0.013	0.24 ± 0.011
FSFSAFARFLVI	0.618 ± 0.048	0.704 ± 0.02	0.604 ± 0.033	0.6999 ± 0.0034	0.243 ± 0.0081	0.255 ± 0.025	0.378 ± 0.018	0.358 ± 0.036
EFVACFRLLVHG	0.3077 ± 0.003	0.368 ± 0.04	0.278 ± 0.021	0.441 ± 0.012	0.2322 ± 0.0015	0.269 ± 0.027	0.4091 ± 0.0033	0.392 ± 0.014
CPFLTLLISLDV	0.52 ± 0.034	0.555 ± 0.044	0.411 ± 0.032	0.531 ± 0.0067	0.407 ± 0.011	0.426 ± 0.01	0.513 ± 0.028	0.478 ± 0.011
RNFSFTVICLAM	0.48 ± 0.037	0.62 ± 0.05	0.485 ± 0.057	0.549 ± 0.0093	0.472 ± 0.026	0.474 ± 0.023	0.514 ± 0.019	0.511 ± 0.11
LFHFPSWIFCLL	0.562 ± 0.02	0.612 ± 0.029	0.55 ± 0.036	0.688 ± 0.015	0.24361 ± 0.00024	0.251 ± 0.014	0.308 ± 0.016	0.331 ± 0.0049

Sequence	protein stability index (Saccharomyces cerevisiae [1]; [3])	protein stability index (Saccharomyces cerevisiae [1]; [4])	protein stability index (Saccharomyces cerevisiae [1]; [5])	protein stability index (Saccharomyces cerevisiae [1]; [6])	protein stability index (Saccharomyces cerevisiae [1]; [7])	protein stability index (Saccharomyces cerevisiae [1]; [8])	protein stability index (Saccharomyces cerevisiae [1]; [9])	protein stability index (Saccharomyces cerevisiae [2])
ILAVMFEIYAIL	0.422 ± 0.013	0.5124 ± 0.0015	0.349 ± 0.042	0.533 ± 0.0094	0.185 ± 0.018	0.228 ± 0.029	0.42 ± 0.023	0.3593 ± 0.0012
GSDGVGGTVLYA	0.685 ± 0.061	0.755 ± 0.014	0.634 ± 0.021	0.729 ± 0.015	0.638 ± 0.013	0.666 ± 0.023	0.728 ± 0.035	0.687 ± 0.037
LFLTSFRFLRLF	0.337 ± 0.016	0.4813 ± 0.0027	0.509 ± 0.0094	0.597 ± 0.03	0.0803 ± 0.006	0.0691 ± 0.015	0.134 ± 0.03	0.162 ± 0.0047
FAIRMHCLIFRC	0.123 ± 0.05	0.15 ± 0.024	0.26 ± 0.048	0.343 ± 0.036	0.2 ± 0.0056	0.124 ± 0.02	0.185 ± 0.0043	0.19 ± 0.0057
LVLALTPFLHSF	0.639 ± 0.01	0.701 ± 0.017	0.638 ± 0.021	0.727 ± 0.012	0.239 ± 0.0075	0.284 ± 0.018	0.551 ± 0.0073	0.399 ± 0.0069
VPRGAALIFLCF	0.574 ± 0.043	0.646 ± 0.025	0.53 ± 0.036	0.6215 ± 0.0013	0.449 ± 0.025	0.464 ± 0.023	0.582 ± 0.0063	0.517 ± 0.055
VSTVCLDFSPFL	0.692 ± 0.065	0.7662 ± 0.0043	0.65 ± 0.018	0.781 ± 0.017	0.668 ± 0.0078	0.66 ± 0.007	0.73714 ± 5.4e-05	0.755 ± 0.043
EFEIALTLIRSI	0.665 ± 0.026	0.733 ± 0.0039	0.593 ± 0.01	0.726 ± 0.011	0.304 ± 0.009	0.361 ± 0.055	0.572 ± 0.031	0.49 ± 0.057
AFKRVFWALWWM	0.367 ± 0.01	0.39 ± 0.0072	0.421 ± 0.03	0.563 ± 0.039	0.431 ± 0.032	0.299 ± 0.022	0.43827 ± 0.00033	0.36 ± 0.014
PHRLSRFILRLL	0.562 ± 0.027	0.683 ± 0.014	0.65 ± 0.033	0.703 ± 0.013	0.118 ± 0.0059	0.119 ± 0.019	0.219 ± 0.015	0.194 ± 0.041
SPRGVVIAFLVC	0.425 ± 0.016	0.569 ± 0.089	0.356 ± 0.028	0.5766 ± 0.0025	0.11 ± 0.014	0.124 ± 0.025	0.109 ± 0.0082	0.129 ± 0.057
HPPPTLVPPHPR	0.64 ± 0.032	0.709 ± 0.031	0.674 ± 0.011	0.727 ± 0.0074	0.7045 ± 0.0028	0.681 ± 0.019	0.6803 ± 0.0027	0.616 ± 0.19
YFICLSLVLFSY	0.163 ± 0.058	0.274 ± 0.05	0.215 ± 0.024	0.351 ± 0.032	0.202 ± 0.02	0.179 ± 0.03	0.306 ± 0.021	0.303 ± 0.069
RVLVEIVYFKVF	0.244 ± 0.0031	0.395 ± 0.032	0.256 ± 0.04	0.474 ± 0.012	0.037 ± 0.014	0.05 ± 0.0044	0.055 ± 0.00095	0.134 ± 0.0018
ISSAGHNIRFLA	0.599 ± 0.052	0.698 ± 0.022	0.658 ± 0.025	0.715 ± 0.008	0.107 ± 0.025	0.129 ± 0.034	0.21 ± 0.018	0.23 ± 0.052
ALWFVLISILCL	0.316 ± 0.016	0.353 ± 0.026	0.312 ± 0.024	0.427 ± 0.03	0.304 ± 0.007	0.291 ± 0.017	0.3896 ± 0.0022	0.378 ± 0.007
VLCMSIFIVFGI	0.197 ± 0.031	0.287 ± 0.023	0.195 ± 0.024	0.352 ± 0.019	0.1774 ± 0.0013	0.196 ± 0.011	0.303 ± 0.011	0.371 ± 0.052
SGLVAFSVCCRG	0.4091 ± 0.00089	0.449 ± 0.036	0.301 ± 0.039	0.5177 ± 0.0048	0.2625 ± 0.0015	0.308 ± 0.02	0.4862 ± 0.0037	0.433 ± 0.021
GLSVLLTCIHFV	0.537 ± 0.031	0.65 ± 0.042	0.482 ± 0.013	0.598 ± 0.01	0.164 ± 0.023	0.176 ± 0.026	0.333 ± 0.014	0.256 ± 0.0041
